{
  "source": "patent US9862971B2",
  "about": "(BUNDESREPUBLIK DEUTSCHLAND, LETZTVERTRETEN DURCH DEN …, dated 2018)",
  "assay_in_all_cases": "cell-based or functional assay",
  "key": {"[1]": {"biological_target": "T1, CD46 (human, UniProt P15529)"}, "[2]": {"biological_target": "human CD20 (human, UniProt P11836)"}, "[3]": {"biological_target": "T1, CD46", "remark": "listed apart in the source"}, "[4]": {"biological_target": "T2, Human SLAM (signaling lymphocyte-activation molecule) (human, UniProt Q13291)", "T2 sequence": "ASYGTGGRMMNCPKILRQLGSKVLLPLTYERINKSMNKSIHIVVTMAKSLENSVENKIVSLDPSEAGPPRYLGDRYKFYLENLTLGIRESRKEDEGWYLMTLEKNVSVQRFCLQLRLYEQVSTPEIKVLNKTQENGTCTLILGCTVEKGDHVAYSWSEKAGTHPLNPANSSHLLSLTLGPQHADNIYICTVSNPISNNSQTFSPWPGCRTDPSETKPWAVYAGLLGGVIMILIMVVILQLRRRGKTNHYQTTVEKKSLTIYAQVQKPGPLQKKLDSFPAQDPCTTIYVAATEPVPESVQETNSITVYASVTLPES"}, "[5]": {"biological_target": "EGF-receptor (Homo sapiens (Human), UniProt P00533)"}},
  "data": [
    {"binder": "HmutscFvCD20Δ18 (other) MGSRIVINREHLMIDRPYVLLAVLFVMFLSLIGLLAIAGIRLHRAAIYTAEIHKSLSTNLDVTNSIEHQVKDVLTPLFKIIGDEVGLRTPQRFTDLVKFISDKIKFLNPDREYDFRDLTWCINPPERIKLDYDQYCADVAAEELMNALVNSTLLETRTTNQFLAVSKGNCSGPTTIRGQFSNMSLSLLDLYLGRGYNVSSIVTMTSQGMYGGTYLVEKPNLSSKRSELSQLSMYRVFEVGVIRNPGLGAPVFHMTNYLEQPVSNDLSNCMVALGELKLAALCHGEDSITIPYQGSGKGVSFQLVKLGVWKSPTDMQSWVPLSTDDPVIDRLYLSSHRGVIADNQAKWAVPTTRTDDKLRMETCFQQACKGKIQALCENPEWAPLKDNRIPSYGVLSVDLSLTVELKIKIASGFGPLITHGSGMDLYKSNHNNVYWLTIPPMKNLALGVINTLEWIPRFKVSPALFTVPIKEAGGDCHAPTYLPAEVDGDVKLSSNLVILPGQDLQYVLATYDTSAVEHAVVYYVYSPSRLSSYFYPFRLPIKGVPIELQVECFTWDQKLWCRHFCVLADSESGGHITHSGMVGMGVSCTVTREDGTNAAQPAIEGRMAQVQLVQSGAELVKPGASVKMSCKASGYTFTSYNMHWVKQTPGQGLEWIGAIYPGNGDTSYNQKFKGKATLTADKSSSTAYMQLSSLTSEDSAVYYCARAQLRPNYWYFDVWGAGTTVTVSKISGGGGSGGGGSGGGGSGGSSDIVLSQSPAILSASPGEKVTMTCRASSSVSYMHWYQQKPGSSPKPWIYATSNLASGVPARFSGSGSGTSYSLTISRVEAEDAATYYCQQWISNPPTFGAGTKLELKAAARGSHHHHHH", "values": [
      {"measurement": "titer [t.u./ml] of HIV-1 vector particles on HT1080 cells, concentrated supernatant", "setting": "[1]", "value": 980, "unit": "t.u./ml"},
      {"measurement": "titer [t.u./ml] of HIV-1 vector particles on HT1080-CD20 cells, concentrated supernatant", "setting": "[2]", "value": 200000, "unit": "t.u./ml"}
    ]},
    {"binder": "HmutscFvCD20Δ24+4A (other) MAAAANREHLMIDRPYVLLAVLFVMFLSLIGLLAIAGIRLHRAAIYTAEIHKSLSTNLDVTNSIEHQVKDVLTPLFKIIGDEVGLRTPQRFTDLVKFISDKIKFLNPDREYDFRDLTWCINPPERIKLDYDQYCADVAAEELMNALVNSTLLETRTTNQFLAVSKGNCSGPTTIRGQFSNMSLSLLDLYLGRGYNVSSIVTMTSQGMYGGTYLVEKPNLSSKRSELSQLSMYRVFEVGVIRNPGLGAPVFHMTNYLEQPVSNDLSNCMVALGELKLAALCHGEDSITIPYQGSGKGVSFQLVKLGVWKSPTDMQSWVPLSTDDPVIDRLYLSSHRGVIADNQAKWAVPTTRTDDKLRMETCFQQACKGKIQALCENPEWAPLKDNRIPSYGVLSVDLSLTVELKIKIASGFGPLITHGSGMDLYKSNHNNVYWLTIPPMKNLALGVINTLEWIPRFKVSPALFTVPIKEAGGDCHAPTYLPAEVDGDVKLSSNLVILPGQDLQYVLATYDTSAVEHAVVYYVYSPSRLSSYFYPFRLPIKGVPIELQVECFTWDQKLWCRHFCVLADSESGGHITHSGMVGMGVSCTVTREDGTNAAQPAIEGRMAQVQLVQSGAELVKPGASVKMSCKASGYTFTSYNMHWVKQTPGQGLEWIGAIYPGNGDTSYNQKFKGKATLTADKSSSTAYMQLSSLTSEDSAVYYCARAQLRPNYWYFDVWGAGTTVTVSKISGGGGSGGGGSGGGGSGGSSDIVLSQSPAILSASPGEKVTMTCRASSSVSYMHWYQQKPGSSPKPWIYATSNLASGVPARFSGSGSGTSYSLTISRVEAEDAATYYCQQWISNPPTFGAGTKLELKAAARGSHHHHHH", "values": [
      {"measurement": "titer [t.u./ml] of HIV-1 vector particles on HT1080 cells, concentrated supernatant", "setting": "[1]", "value": 200, "unit": "t.u./ml"},
      {"measurement": "titer [t.u./ml] of HIV-1 vector particles on HT1080-CD20 cells, concentrated supernatant", "setting": "[2]", "value": 8600, "unit": "t.u./ml"}
    ]},
    {"binder": "HmutEGFΔ18 (other) MGSRIVINREHLMIDRPYVLLAVLFVMFLSLIGLLAIAGIRLHRAAIYTAEIHKSLSTNLDVTNSIEHQVKDVLTPLFKIIGDEVGLRTPQRFTDLVKFISDKIKFLNPDREYDFRDLTWCINPPERIKLDYDQYCADVAAEELMNALVNSTLLETRTTNQFLAVSKGNCSGPTTIRGQFSNMSLSLLDLYLGRGYNVSSIVTMTSQGMYGGTYLVEKPNLSSKRSELSQLSMYRVFEVGVIRNPGLGAPVFHMTNYLEQPVSNDLSNCMVALGELKLAALCHGEDSITIPYQGSGKGVSFQLVKLGVWKSPTDMQSWVPLSTDDPVIDRLYLSSHRGVIADNQAKWAVPTTRTDDKLRMETCFQQACKGKIQALCENPEWAPLKDNRIPSYGVLSVDLSLTVELKIKIASGFGPLITHGSGMDLYKSNHNNVYWLTIPPMKNLALGVINTLEWIPRFKVSPALFTVPIKEAGGDCHAPTYLPAEVDGDVKLSSNLVILPGQDLQYVLATYDTSAVEHAVVYYVYSPSRLSSYFYPFRLPIKGVPIELQVECFTWDQKLWCRHFCVLADSESGGHITHSGMVGMGVSCTVTREDGTNAAQPAMANSDSECPLSHDGYCLHDGVCMYIEALDKYACNCVVGYIGERCQYRDLKWWELRAAARGSHHHHHH", "values": [
      {"measurement": "titer [t.u./ml] of HIV-1 vector particles on CHO-BC1 cells, concentrated supernatant", "setting": "[3]", "value": 0, "unit": "t.u./ml"},
      {"measurement": "titer [t.u./ml] of HIV-1 vector particles on CHO-hSLAM cells, concentrated supernatant", "setting": "[4]", "value": 280, "unit": "t.u./ml"},
      {"measurement": "titer [t.u./ml] of HIV-1 vector particles on A-431 cells, concentrated supernatant", "setting": "[5]", "value": 270000, "unit": "t.u./ml"}
    ]},
    {"binder": "HmutEGFΔ19 (other) MSRIVINREHLMIDRPYVLLAVLFVMFLSLIGLLAIAGIRLHRAAIYTAEIHKSLSTNLDVTNSIEHQVKDVLTPLFKIIGDEVGLRTPQRFTDLVKFISDKIKFLNPDREYDFRDLTWCINPPERIKLDYDQYCADVAAEELMNALVNSTLLETRTTNQFLAVSKGNCSGPTTIRGQFSNMSLSLLDLYLGRGYNVSSIVTMTSQGMYGGTYLVEKPNLSSKRSELSQLSMYRVFEVGVIRNPGLGAPVFHMTNYLEQPVSNDLSNCMVALGELKLAALCHGEDSITIPYQGSGKGVSFQLVKLGVWKSPTDMQSWVPLSTDDPVIDRLYLSSHRGVIADNQAKWAVPTTRTDDKLRMETCFQQACKGKIQALCENPEWAPLKDNRIPSYGVLSVDLSLTVELKIKIASGFGPLITHGSGMDLYKSNHNNVYWLTIPPMKNLALGVINTLEWIPRFKVSPALFTVPIKEAGGDCHAPTYLPAEVDGDVKLSSNLVILPGQDLQYVLATYDTSAVEHAVVYYVYSPSRLSSYFYPFRLPIKGVPIELQVECFTWDQKLWCRHFCVLADSESGGHITHSGMVGMGVSCTVTREDGTNAAQPAMANSDSECPLSHDGYCLHDGVCMYIEALDKYACNCVVGYIGERCQYRDLKWWELRAAARGSHHHHHH", "values": [
      {"measurement": "titer [t.u./ml] of HIV-1 vector particles on CHO-BC1 cells, concentrated supernatant", "setting": "[3]", "value": 0, "unit": "t.u./ml"},
      {"measurement": "titer [t.u./ml] of HIV-1 vector particles on CHO-hSLAM cells, concentrated supernatant", "setting": "[4]", "value": 160, "unit": "t.u./ml"},
      {"measurement": "titer [t.u./ml] of HIV-1 vector particles on A-431 cells, concentrated supernatant", "setting": "[5]", "value": 22000, "unit": "t.u./ml"}
    ]},
    {"binder": "HmutEGFΔ24+4A (other) MAAAANREHLMIDRPYVLLAVLFVMFLSLIGLLAIAGIRLHRAAIYTAEIHKSLSTNLDVTNSIEHQVKDVLTPLFKIIGDEVGLRTPQRFTDLVKFISDKIKFLNPDREYDFRDLTWCINPPERIKLDYDQYCADVAAEELMNALVNSTLLETRTTNQFLAVSKGNCSGPTTIRGQFSNMSLSLLDLYLGRGYNVSSIVTMTSQGMYGGTYLVEKPNLSSKRSELSQLSMYRVFEVGVIRNPGLGAPVFHMTNYLEQPVSNDLSNCMVALGELKLAALCHGEDSITIPYQGSGKGVSFQLVKLGVWKSPTDMQSWVPLSTDDPVIDRLYLSSHRGVIADNQAKWAVPTTRTDDKLRMETCFQQACKGKIQALCENPEWAPLKDNRIPSYGVLSVDLSLTVELKIKIASGFGPLITHGSGMDLYKSNHNNVYWLTIPPMKNLALGVINTLEWIPRFKVSPALFTVPIKEAGGDCHAPTYLPAEVDGDVKLSSNLVILPGQDLQYVLATYDTSAVEHAVVYYVYSPSRLSSYFYPFRLPIKGVPIELQVECFTWDQKLWCRHFCVLADSESGGHITHSGMVGMGVSCTVTREDGTNAAQPAMANSDSECPLSHDGYCLHDGVCMYIEALDKYACNCVVGYIGERCQYRDLKWWELRAAARGSHHHHHH", "values": [
      {"measurement": "titer [t.u./ml] of HIV-1 vector particles on CHO-BC1 cells, concentrated supernatant", "setting": "[3]", "value": 800, "unit": "t.u./ml"},
      {"measurement": "titer [t.u./ml] of HIV-1 vector particles on CHO-hSLAM cells, concentrated supernatant", "setting": "[4]", "value": 960, "unit": "t.u./ml"},
      {"measurement": "titer [t.u./ml] of HIV-1 vector particles on A-431 cells, concentrated supernatant", "setting": "[5]", "value": 58000, "unit": "t.u./ml"}
    ]}
  ]
}
